The values that follow come from patent US20250340635A1 (HEFEI TG IMMUNOPHARMA, published 2025).

Experiment [1] concerns the target T1, human MICA-His fusion protein (human, UniProt Q29983 24-307).
T1 construct: extracellular domain; also called MICA extracellular region His tag fusion protein; not shown: His tag
T1 sequence (looked up): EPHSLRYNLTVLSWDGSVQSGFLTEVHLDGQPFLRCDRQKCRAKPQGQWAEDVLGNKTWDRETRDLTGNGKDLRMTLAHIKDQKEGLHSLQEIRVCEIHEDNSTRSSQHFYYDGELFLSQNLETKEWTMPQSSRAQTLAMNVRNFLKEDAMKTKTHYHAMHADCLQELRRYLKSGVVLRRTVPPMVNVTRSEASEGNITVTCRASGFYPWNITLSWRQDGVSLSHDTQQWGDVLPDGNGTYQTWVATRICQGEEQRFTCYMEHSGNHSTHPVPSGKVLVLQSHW
Kind of experiment: ELISA, MICA-His coated, anti-human HRP.

Experiment [2] has as its target T2, human NKp46-His fusion protein (human, UniProt O76036 22-258).
T2 construct: Bought from Acro; also called NKp46 extracellular region His tag fusion protein; not shown: His tag
Description: ELISA, NKp46-His coated, anti-human HRP.

The target of experiment [3] is T3, cynomolgus monkey-His fusion protein (cynomolgus monkey, UniProt Q95JB9 22-257).
T3 construct: extracellular domain; also called cynomolgus monkey NKp46; monkey NKp46; not shown: His tag
T3 sequence (Q95JB9 22-257): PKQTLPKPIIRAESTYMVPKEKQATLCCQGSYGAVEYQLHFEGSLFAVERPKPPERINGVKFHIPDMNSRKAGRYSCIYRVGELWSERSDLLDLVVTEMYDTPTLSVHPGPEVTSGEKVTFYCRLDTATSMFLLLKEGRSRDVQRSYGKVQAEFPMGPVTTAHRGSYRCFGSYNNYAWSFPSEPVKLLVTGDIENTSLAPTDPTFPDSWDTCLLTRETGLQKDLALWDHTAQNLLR
Description: not described at this place ("Validation has shown"); Jeru4602 was tested by ELISA on coated cynomolgus NKp46-His in Example 7. Here is the method:
The binding characteristics of the humanized 10D10 antibody prepared in Example 6 was detected using the ELISA assay. The NKp46 extracellular region His tag fusion protein (NKp46-His) was coated into a 96-well plate. The signal intensity after antibody addition was used to determine the binding characteristics of the antibody to NKp46. The specific steps were as follows:
The human NKp46-His fusion protein and cynomolgus monkey-His fusion protein (for specific sources, see Example 2) were diluted to 1 μg/mL with PBS buffer, added to a 96-well plate at 100 μL/well and left overnight at 4° C. The PBS buffer solution was removed from the 96-well plate. The plate was washed 6 times with PBST (pH 7.2, PBS containing 0.1% Tween 20) buffer solution. PBS/10% BSA was added at 200 μL/well and incubated at 37° C. for 2 hours for blocking. The blocking solution was removed. The plate was washed 6 times with PBST. […] The absorbance at […] was read with a microplate reader.

T2 sequence (O76036 22-258 Q82K): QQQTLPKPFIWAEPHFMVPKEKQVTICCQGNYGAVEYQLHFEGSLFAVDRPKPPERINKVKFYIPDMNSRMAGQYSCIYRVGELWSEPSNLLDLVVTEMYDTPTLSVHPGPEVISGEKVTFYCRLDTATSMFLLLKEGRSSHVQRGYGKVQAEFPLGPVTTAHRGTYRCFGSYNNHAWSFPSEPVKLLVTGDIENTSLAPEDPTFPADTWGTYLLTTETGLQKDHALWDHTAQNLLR

B1: murine 10D10×MICA bispecific antibody (bispecific antibody, human IgG1, kappa, L234A L235A)
chain: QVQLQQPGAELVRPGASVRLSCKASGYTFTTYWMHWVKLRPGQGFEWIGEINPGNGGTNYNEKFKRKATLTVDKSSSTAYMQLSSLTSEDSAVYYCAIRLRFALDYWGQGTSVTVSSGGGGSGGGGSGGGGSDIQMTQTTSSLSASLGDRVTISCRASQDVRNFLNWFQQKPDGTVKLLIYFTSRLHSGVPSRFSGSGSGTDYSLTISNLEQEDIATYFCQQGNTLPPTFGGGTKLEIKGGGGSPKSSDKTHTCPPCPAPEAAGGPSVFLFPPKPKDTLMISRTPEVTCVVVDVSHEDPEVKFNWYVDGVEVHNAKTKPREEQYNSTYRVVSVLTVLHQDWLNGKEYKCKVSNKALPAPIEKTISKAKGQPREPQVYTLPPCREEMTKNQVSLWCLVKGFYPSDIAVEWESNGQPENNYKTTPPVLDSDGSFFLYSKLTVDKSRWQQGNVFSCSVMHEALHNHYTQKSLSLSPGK
heavy: QVQLQESGPGLVKPSETLSLTCTVSGFSLTTYGVHWIRQPPGKGLEWIGMIWTDATTDYNAAFISRVTISVDTSKNQFSLKLSSVTAADTAVYYCARKGHGYYYAMDYWGQGTLVTVSSASTKGPSVFPLAPSSKSTSGGTAALGCLVKDYFPEPVTVSWNSGALTSGVHTFPAVLQSSGLYSLSSVVTVPSSSLGTQTYICNVNHKPSNTKVDKKVEPKSCDKTHTCPPCPAPEAAGGPSVFLFPPKPKDTLMISRTPEVTCVVVDVSHEDPEVKFNWYVDGVEVHNAKTKPREEQYNSTYRVVSVLTVLHQDWLNGKEYKCKVSNKALPAPIEKTISKAKGQPREPQVCTLPPSREEMTKNQVSLSCAVKGFYPSDIAVEWESNGQPENNYKTTPPVLDSDGSFFLVSKLTVDKSRWQQGNVFSCSVMHEALHNHYTQKSLSLSPGK
light: EIVLTQSPGTLSLSPGERATLSCTASSSVSSSYLHWYQQKPGQAPRLLIYSTSNLASGIPDRFSGSGSGTDFTLTISRLEPEDFAVYYCHQYHRSPFTFGQGTKLEIKRTVAAPSVFIFPPSDEQLKSGTASVVCLLNNFYPREAKVQWKVDNALQSGNSQESVTEQDSKDSTYSLSSTLTLSKADYEKHKVYACEVTHQGLSSPVTKSFNRGEC
notes: First chain is the murine 10D10 ScFv-Fc (knob); the heavy and light chains are those of the MICA antibody (hole); knob-into-hole heterodimer; also called NKp46 (murine 10D10)×MICA bispecific antibody
Turning to B1, the binding result in experiment [1] and in experiment [2] was “binds” throughout.

B2: humanized 10D10×MICA bispecific antibody (bispecific antibody, human IgG1, kappa, L234A L235A)
chain: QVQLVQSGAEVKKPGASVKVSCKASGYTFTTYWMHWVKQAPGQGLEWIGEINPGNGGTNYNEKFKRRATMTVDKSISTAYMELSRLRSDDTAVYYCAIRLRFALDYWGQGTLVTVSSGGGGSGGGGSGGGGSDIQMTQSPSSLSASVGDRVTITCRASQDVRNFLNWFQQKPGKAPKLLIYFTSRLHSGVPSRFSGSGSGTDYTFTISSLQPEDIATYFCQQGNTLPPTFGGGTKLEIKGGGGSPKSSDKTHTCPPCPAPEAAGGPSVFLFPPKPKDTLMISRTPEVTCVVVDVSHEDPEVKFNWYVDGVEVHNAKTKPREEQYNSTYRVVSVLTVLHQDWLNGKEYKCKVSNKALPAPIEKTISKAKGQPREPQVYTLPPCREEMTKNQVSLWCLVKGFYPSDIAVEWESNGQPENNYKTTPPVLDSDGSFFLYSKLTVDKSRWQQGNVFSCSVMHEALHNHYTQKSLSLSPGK
heavy: QVQLQESGPGLVKPSETLSLTCTVSGFSLTTYGVHWIRQPPGKGLEWIGMIWTDATTDYNAAFISRVTISVDTSKNQFSLKLSSVTAADTAVYYCARKGHGYYYAMDYWGQGTLVTVSSASTKGPSVFPLAPSSKSTSGGTAALGCLVKDYFPEPVTVSWNSGALTSGVHTFPAVLQSSGLYSLSSVVTVPSSSLGTQTYICNVNHKPSNTKVDKKVEPKSCDKTHTCPPCPAPEAAGGPSVFLFPPKPKDTLMISRTPEVTCVVVDVSHEDPEVKFNWYVDGVEVHNAKTKPREEQYNSTYRVVSVLTVLHQDWLNGKEYKCKVSNKALPAPIEKTISKAKGQPREPQVCTLPPSREEMTKNQVSLSCAVKGFYPSDIAVEWESNGQPENNYKTTPPVLDSDGSFFLVSKLTVDKSRWQQGNVFSCSVMHEALHNHYTQKSLSLSPGK
light: EIVLTQSPGTLSLSPGERATLSCTASSSVSSSYLHWYQQKPGQAPRLLIYSTSNLASGIPDRFSGSGSGTDFTLTISRLEPEDFAVYYCHQYHRSPFTFGQGTKLEIKRTVAAPSVFIFPPSDEQLKSGTASVVCLLNNFYPREAKVQWKVDNALQSGNSQESVTEQDSKDSTYSLSSTLTLSKADYEKHKVYACEVTHQGLSSPVTKSFNRGEC
notes: First chain is the humanized h10D10 ScFv-Fc (knob); the heavy and light chains are those of the MICA antibody (hole); also called h10D10×MICA; NKp46 (humanized 10D10)×MICA bispecific antibody
With B2, the binding result in experiment [1] and in experiment [2] was “binds” in each case.

B3: Jeru4602 (antibody, human IgG1, kappa, L234A L235A, V domains shown)
VH: QVTLKESGPGILQPSQTLSLTCSFSGFSLSTYGIGVGWNRQPSGKGLEWLAHIWWNDNEYYNIDLKSRLTISKDTSNNQVFLKIASVDTADTATYYCVRGNYRYARGYVMDYWGQGTSVTVSS
VL: DIVLTQSPASLAVSLGQRATISCRASESVEYYGTSLMQWYQQKPGQPPKLLIYAASNVESGVPARFSGSGSGTDFSLNIHPVEEDDFAMYFCQQNRKVPWTFGGGTKLEIKR
notes: also called control antibody 2; NKp46 antibody disclosed in U.S. Ser. No. 10/716,864
In the case of B3, the binding result in experiment [3] was “no binding”.
